Data as given in patent publication US20230203142A1 (published 2023).

Assays:
Experiment in all cases: MST
[1] = target: human NDPK-A (nucleoside diphosphate kinase A), full-length recombinant (UniProt P15531 2-152)
[2] = target: human ADK (adenosine kinase), recombinant (UniProt P55263 2-362)
[3] = target: T1, recombinant human FABP4 (fatty acid binding protein 4) (UniProt P15090 2-132)
T1 chain: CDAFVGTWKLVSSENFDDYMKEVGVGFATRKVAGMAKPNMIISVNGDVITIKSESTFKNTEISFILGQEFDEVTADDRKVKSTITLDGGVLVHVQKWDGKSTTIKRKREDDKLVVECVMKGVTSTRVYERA

human NDPK-A (nucleoside diphosphate kinase A), full-length recombinant, sequence (P15531 other isoform, or with tags, fused parts or gaps): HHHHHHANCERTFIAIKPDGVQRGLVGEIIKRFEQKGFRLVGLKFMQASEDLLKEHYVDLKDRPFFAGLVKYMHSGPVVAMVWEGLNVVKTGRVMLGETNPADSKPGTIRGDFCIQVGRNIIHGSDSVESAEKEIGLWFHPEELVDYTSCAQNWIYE
human ADK (adenosine kinase), recombinant, sequence (P55263 2-362): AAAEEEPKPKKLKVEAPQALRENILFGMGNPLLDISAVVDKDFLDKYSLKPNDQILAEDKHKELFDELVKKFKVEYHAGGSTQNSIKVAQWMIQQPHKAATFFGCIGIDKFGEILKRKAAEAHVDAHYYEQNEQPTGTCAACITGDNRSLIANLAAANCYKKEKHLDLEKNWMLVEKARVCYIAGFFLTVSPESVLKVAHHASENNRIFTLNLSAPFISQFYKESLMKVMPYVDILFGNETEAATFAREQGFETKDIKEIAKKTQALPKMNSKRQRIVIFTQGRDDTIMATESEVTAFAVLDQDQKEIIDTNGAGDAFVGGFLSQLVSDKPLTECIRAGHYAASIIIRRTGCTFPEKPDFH

- EC50 [1]: 0.143 µM
- EC50 [2]: 1.88 µM
- Kd [3]: 2.86 µM
B1: CA33 (a-Ab) monoclonal antibody (antibody)
heavy: QSVEESGGRLVTPGTPLTLTCTVSGFSLSTYYMSWVRQAPGKGLEWIGIIYPSGSTYCASWAKGRFTISKASTTVDLKITSPTTEDTATYFCARPDNDGTSGYLSGFGLWGQGLVTVSSAKTTPPSVYPLAPGSAAQTNSMVTLGCLVKGYFPEPVTVTWNSGSLSSGVHTFPAVLQSDLYTLSSSVTVPSSTWPSETVTCNVAHPASSTKVDKKIVPRDC
light: DVVMTQTPASVSEPVGGTVTIKCGASEDISRYLVWYQQKPGQPPKRLIYKASTLASGVPSRFKGSGSGTDFTLTISDLECDDAATYYCQCTYGTYAGSFFYSFGGGTEVVVERTDAAPTVSIFPPSSEQLTSGGASVVCFLNNFYPKDINVKWKIDGSERQNGVLNSWTDQDSKDCTYSMSSTLTLTKDEYERHNSYTCEATHKTSTSPIVKSFNRNEC
